Data as given in patent US20240150466A1 (DYNAMICURE BIOTECHNOLOGY, published 2024).
Like-named read-outs stand apart in the source and are kept apart here. Each block holds one binder with its values, some of them ahead of it.

Assays:
[1] = target: T1, mouse IGFBP7 displayed on cells (HEK293T or CHO-K1) (mouse, UniProt Q61581 26-281); test: flow cytometry on mouse IGFBP7 displaying HEK293T cells, nanobody 10 ug/ml, APC anti-HIS detection
T1 construct: whole, on cells;domain: CD80 transmembrane domain; also called mIGFBP7; mIGFBP7-HEK cells; not shown: linker; CD80 transmembrane domain
T1 sequence (looked up): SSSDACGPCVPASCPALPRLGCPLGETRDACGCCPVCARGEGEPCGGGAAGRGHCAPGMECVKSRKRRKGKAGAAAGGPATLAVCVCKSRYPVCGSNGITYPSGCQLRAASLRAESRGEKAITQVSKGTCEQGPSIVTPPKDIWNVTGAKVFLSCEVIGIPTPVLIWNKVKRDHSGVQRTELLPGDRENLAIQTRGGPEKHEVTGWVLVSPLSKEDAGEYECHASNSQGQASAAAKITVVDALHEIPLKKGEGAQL
Method: (§1) Human IGFBP7 and mouse IGFBP7 displaying HEK293T cells were detached by incubation with TrypLE reagents (Thermos Fisher), which preserves the integrity of IGFBP7 on the cell surface. Then the cells were incubated with anti-IGFBP7 nanobodies at 10 μg/ml for 30 minutes in 4° C. After washing by FACS buffer, the cells were incubated with APC conjugated anti-HIS antibodies (Biolegend) for 30 minutes in 4° C. After washing by FACS buffer twice, the samples were acquired in NovoCyte Flow Cytometer and analyzed by NovoExpress software.

[2] = target: T2, mouse IGFBP7 recombinant protein (mouse, UniProt Q61581 26-281, limits assumed, biotinylated with EZ-LINK NHS-PEG4 biotin in the BLI assays (sites not given)); test: ELISA
T2 construct: Soluble protein in ELISA and BLI; also called mIGFBP7
T2 sequence (looked up): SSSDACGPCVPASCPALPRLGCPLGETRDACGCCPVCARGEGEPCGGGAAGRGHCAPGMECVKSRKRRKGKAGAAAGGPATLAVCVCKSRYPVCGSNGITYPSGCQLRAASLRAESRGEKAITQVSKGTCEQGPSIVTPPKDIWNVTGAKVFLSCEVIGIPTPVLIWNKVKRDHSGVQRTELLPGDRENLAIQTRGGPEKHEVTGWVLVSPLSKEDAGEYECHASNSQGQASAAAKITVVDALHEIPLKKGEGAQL

[3] = target: T3, human IGFBP7 recombinant protein (human, UniProt Q16270 27-282, biotinylated with EZ-LINK NHS-PEG4 biotin in the BLI assays (sites not given)); test: ELISA
T3 construct: Soluble protein used for ELISA coating and, biotinylated, on streptavidin biosensors (Octet); also called hIGFBP7; biotinylated IGFBP7 protein
T3 sequence: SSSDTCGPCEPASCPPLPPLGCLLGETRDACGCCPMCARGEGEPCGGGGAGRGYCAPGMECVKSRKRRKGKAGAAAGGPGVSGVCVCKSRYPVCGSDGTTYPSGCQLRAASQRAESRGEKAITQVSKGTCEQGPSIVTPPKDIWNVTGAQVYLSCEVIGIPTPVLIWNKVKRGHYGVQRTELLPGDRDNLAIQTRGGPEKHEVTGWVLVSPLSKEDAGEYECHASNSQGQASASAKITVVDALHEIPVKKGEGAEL

[4] = target: T4, human IGFBP7 displayed on HEK293T cells (human, UniProt Q16270 27-282); test: flow cytometry on human IGFBP7 displaying HEK293T cells, nanobody 10 ug/ml, APC anti-HIS detection
T4 construct: domain: CD80 transmembrane domain; signal peptide stated as residues 1-26; also called hIGFBP7; hIGFBP7-HEK cells; not shown: linker; CD80 transmembrane domain
T4 sequence: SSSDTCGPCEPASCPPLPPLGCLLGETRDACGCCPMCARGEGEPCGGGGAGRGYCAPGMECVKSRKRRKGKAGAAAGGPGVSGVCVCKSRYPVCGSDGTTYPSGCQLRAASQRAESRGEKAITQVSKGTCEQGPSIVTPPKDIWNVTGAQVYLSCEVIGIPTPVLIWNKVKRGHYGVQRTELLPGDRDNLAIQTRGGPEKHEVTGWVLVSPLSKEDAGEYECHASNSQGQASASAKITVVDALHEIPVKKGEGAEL
Method: as §1

[5] = target: T1, mouse IGFBP7 displayed on cells …; test: FACS on mIGFBP7-expressing CHO-K1 cells (FIG. 5)
[6] = target: T5, cynomolgus IGFBP7 recombinant protein (cynomolgus); test: BLI
T5 chain: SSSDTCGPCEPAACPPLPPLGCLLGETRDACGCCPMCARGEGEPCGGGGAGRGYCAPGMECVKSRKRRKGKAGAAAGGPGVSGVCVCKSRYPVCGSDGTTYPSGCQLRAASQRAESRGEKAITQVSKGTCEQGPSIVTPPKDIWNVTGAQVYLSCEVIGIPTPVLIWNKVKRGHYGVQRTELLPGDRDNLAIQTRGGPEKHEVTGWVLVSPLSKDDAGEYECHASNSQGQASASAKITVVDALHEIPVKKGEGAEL

[7] = target: T6, human IGFBP7 recombinant protein (UniProt Q16270 27-282, biotinylated with EZ-LINK NHS-PEG4 biotin in the BLI assays (sites not given)); test: BLI
T6 chain: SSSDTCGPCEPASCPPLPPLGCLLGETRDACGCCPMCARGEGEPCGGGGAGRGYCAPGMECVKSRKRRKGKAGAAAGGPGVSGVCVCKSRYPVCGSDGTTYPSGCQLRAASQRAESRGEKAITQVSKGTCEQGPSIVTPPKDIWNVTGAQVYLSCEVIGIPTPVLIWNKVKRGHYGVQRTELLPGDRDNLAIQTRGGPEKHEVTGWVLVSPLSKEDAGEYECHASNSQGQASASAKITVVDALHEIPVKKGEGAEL

[8] = target: T7, mouse IGFBP7 recombinant protein (mouse, UniProt Q61581 26-281, biotinylated with EZ-LINK NHS-PEG4 biotin in the BLI assays (sites not given)); test: BLI
T7 chain: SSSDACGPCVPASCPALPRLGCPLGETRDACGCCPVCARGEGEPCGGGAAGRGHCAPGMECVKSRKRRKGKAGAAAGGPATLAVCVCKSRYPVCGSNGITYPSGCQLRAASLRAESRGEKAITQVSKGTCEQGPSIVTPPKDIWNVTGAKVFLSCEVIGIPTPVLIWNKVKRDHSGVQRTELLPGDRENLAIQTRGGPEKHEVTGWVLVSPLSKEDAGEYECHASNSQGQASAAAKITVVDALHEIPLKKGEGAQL

[9] = target: T6, human IGFBP7 recombinant protein; test: BLI
[10] = target: T7, mouse IGFBP7 recombinant protein; test: BLI
[11] = target: T7, mouse IGFBP7 recombinant protein; test: BLI
[12] = target: T6, human IGFBP7 recombinant protein; test: BLI
[13] = target: T8, His-tagged human IGFBP7 recombinant protein (human, UniProt Q16270 27-282); test: flow cytometry blockade assay: nanobody 50 ug/mL pre-incubated with His-tagged human IGFBP7 1 ug/mL, then human CD93 CHO cells (FIG. 14)
T8 construct: not shown: His tag
T8 sequence: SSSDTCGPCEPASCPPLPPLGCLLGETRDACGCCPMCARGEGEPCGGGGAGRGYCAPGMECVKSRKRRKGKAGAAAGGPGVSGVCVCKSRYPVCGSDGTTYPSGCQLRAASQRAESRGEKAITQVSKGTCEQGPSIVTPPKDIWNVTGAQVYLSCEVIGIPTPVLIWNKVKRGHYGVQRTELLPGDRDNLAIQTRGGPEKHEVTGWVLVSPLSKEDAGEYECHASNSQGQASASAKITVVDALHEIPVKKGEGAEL
Method: Anti-IGFBP7 nanobodies and nanobody-Fc fusions (50 μg/mL) generated in previous examples was incubated with His-tagged human IGFBP7 recombinant protein (1 μg/mL) for 30 minutes in 4° C. Human CD93 expressing CHO cells (1×10⁵ per well) were treated the mixture for 30 minutes at 4° C. Then the cells were washed with FACS buffer and incubated with anti-IGFBP7 monoclonal rabbit antibody (Sino Biological Inc, Catalog #13100-R003) at 1 μg/mL for 30 minutes in 4° C. After incubation, the cells were washed with FACS buffer and incubated with PE-conjugated anti-rabbit IgG antibody ([…]) for 30 minutes in 4° C. After washing with FACS buffer twice, the samples were analyzed and data acquired in NovoCyte Flow.

binding result [1]: binds
binding result [2]: binds
binding result [3]: binds
binding result [4]: binds
B1: anti-IGFBP7 nanobody A01 (VHH)
VHH: VQLQESGGGLVQAGGSLRLSCAASGSLFAIDKWGWYRQVAGNERELVAWRYSPVSINYGDSVKGRFTVSGDSSRKRVYLQMNSLKPDDTAVYRCAAVISGAWYWGQGTQVTVSS
notes: Llama nanobody expressed in E. coli as His6-tagged protein; also called A1; A1 VHH; not shown: His6 tag

binding result [5]: binds
B2: anti-IGFBP7 nanobody Fc-fusion construct derived from A1 (Fc isotype not told) (Fc fusion)
chain: VQLQESGGGLVQAGGSLRLSCAASGSLFAIDKWGWYRQVAGNERELVAWRYSPVSINYGDSVKGRFTVSGDSSRKRVYLQMNSLKPDDTAVYRCAAVISGAWYWGQGTQVTVSS
notes: may be the same as A1-mIgG2a or A1-mIgG1; not shown: mouse Fc fragment, mIgG2a or mIgG1

Kd [6]: 0.939 nM
Kd [7]: 0.902 nM
Kd [8]: 1.07 nM
Kd [9]: 0.902 nM
Kd [10]: 1.07 nM
B3: bispecific anti-IGFBP7 nanobody Fc-fusion construct A1D4-mIgG2a (bispecific antibody)
chain: VQLQESGGGLVQAGGSLRLSCAASGSLFAIDKWGWYRQVAGNERELVAWRYSPVSINYGDSVKGRFTVSGDSSRKRVYLQMNSLKPDDTAVYRCAAVISGAWYWGQGTQVTVSSVQLQESGGGLVQTGGSLRLSCAASGRSFTFSSYAMGWFRHAPGKEREFLTAITWSGDYTYYTDSVKGRSTISRDNAKNTVYLQLNNLKPEDTAVYYCAAKFSQVSAFFATVSEYEYWGQGTQVTVSS

binding result [4]: binds
B4: anti-IGFBP7 nanobody F12 (VHH)
VHH: VQLQESGGGLVQPGGSLRLSCAASGFTFSINTYLWYRQPPGKQREFVAAITSGGSINYADSVKGRFTISRDNAKKTVYLQMNSLKPEDTAVYVCNIKAHPNPWGFDNDYWGQGTQVTVSS
notes: Llama nanobody expressed in E. coli as His6-tagged protein; not shown: His6 tag

Kd [11]: 0.0078 nM
Kd [12]: 1.2 nM
B5: A4-mIgG2a nanobody Fc-fusion (Fc fusion)
chain: VQLQESGGGLVQPGGSLRLSCAASGTFTINTYLWYRQPPGKQREFVAAITRGGSINYADSVKGRFTISRDNAKKTVYLQMNSLKPEDTAVYVCNIKAHPNPWGFDNDYWGQGTQVTVSS

percent blocking of the CD93-IGFBP7 interaction [13]: ≥ 50%
B6: anti-IGFBP7 nanobody A03 (VHH)
VHH: VQLQESGGGLVQAGGSLRLSCAASGTFSINTYLWYRQPPGKQREFVAAITSGGSINYADSVKGRFTISRDNAKKTVYLQMNSLKPEDTAVYVCNIKAHPNPWGFDNDYWGQGTQVTVSS
notes: Llama nanobody expressed in E. coli as His6-tagged protein; also called A3; not shown: His6 tag

percent blocking of the CD93-IGFBP7 interaction [13]: ≥ 50%
B7: anti-IGFBP7 nanobody A04 (VHH)
VHH: VQLQESGGGLVQPGGSLRLSCAASGTFTINTYLWYRQPPGKQREFVAAITRGGSINYADSVKGRFTISRDNAKKTVYLQMNSLKPEDTAVYVCNIKAHPNPWGFDNDYWGQGTQVTVSS
notes: Llama nanobody expressed in E. coli as His6-tagged protein; also called A4; A4 VHH; not shown: His6 tag
